Assay results as given in the supplement of paper PMC10567573.

B1: MATN2 (parent)
chain: FIVDILQFLDIGPDVTRVGLLQYG
B2: KRT33B (parent)
chain: PAVDLNQVLNETRNQYEALVETNR
B3: SNURF (parent)
chain: QVPVVDFQAELRQAFLAETPRGG

Variants of: B1
Assay: protein stability index of a GFP-peptide fusion (GPS, HEK-293T) (PSI 1-6); higher = more stable
Settings: c terminus: a fixed tail appended
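Note: lentivirally expressed fusions sorted by FACS into six bins by GFP to DsRed ratio, PSI derived from sequencing read proportions per bin multiplied by bin number.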

Protein stability index, by site and new letter:
V18: P 3.38; N 2.16; K 2.05; S 3.5; F 3.25; D 2.04; C 2.58; R 1.82; Q 1.8; M 2.55
V3: N 3.33; Y 2.5; H 4.66; K 2.6; W 3.32; P 2.84; D 3.75
P13: V 2.93; F 1.91; Q 4; N 3.21; K 2.15; W 2.61; A 3.91; I 2.79; H 2.73; S 2.69; M 2.4; E 2.72
L20: V 4; G 3.72; R 1.79; C 1.87; H 2.86; N 3.71; W 3.97; A 2.25; Y 3.45; F 2.92
D14: I 3.22; E 4.71; P 3.06; A 2.27; N 3.04; Y 2.6; S 2.67; H 2.17
Q7: A 3.4; C 2.24; D 3.01; E 3.38; T 3.12; K 3.78; P 2.12; S 2.27; H 1.98; Y 3.34
G19: A 2.26; C 1.32; P 2.58; I 2.67; S 2.33; M 3.24; L 3.83; E 3.93; W 2.62; Q 2.7; T 3.15; H 3.51; V 2.69; D 3.21
Q22: G 3.55; S 3.08; N 1.93; F 3.25; A 2.48; M 2.53; Y 4.14; K 2.98; V 3.57
F8: S 2.12; V 2.94; T 3.44; K 1.06; D 2; P 2.96; C 2.21; G 4.33; I 2.65; L 2.43; Q 2.49; N 1.68
L6: H 3.78; A 3.92; F 2.17; I 2.56; W 3.3; R 3.41; Y 2.87; P 1.3
D4: E 2.88; C 2.67; V 2.77; K 2.12; H 4.41; A 2.58; Q 2.72; Y 2.58; L 2.53; P 5.01
Y23: Q 2.29; R 3.61; T 3.99; M 2.75; L 1.84
I5: A 1.44; L 2.26; F 3.88; N 2.12; V 3.23; E 3.96; Q 1.81; Y 3.16; D 3.18
I11: Q 2.77; N 2.49; K 3.5; L 2.53; Y 3.28; C 1.18; M 3.73; H 4.42; S 2.12; G 3.02; T 2.8
R17: G 2.07; V 3.47; Y 3.22; A 3.59; S 1.03; N 2.75; C 2.86; M 2.05; F 2.23; L 3.37; I 2.77
D10: E 3.48; W 2.66; L 2.62; T 3.42; R 3.54
G12: T 3.93; L 2.63; R 4.05; N 3.36; Q 2; C 2.76; F 1.9; I 2.79; M 2.11; D 2.56; S 2.61; H 3.69
G24: R 2.18; W 3.04; L 4.05; F 3.31; K 1.81; A 2.27; H 3.37; E 1.99; I 3.62
T16: G 2.19; M 1.06; P 2.42; Y 4.05; L 3.03; R 2.33; W 3.52; D 2.7
L21: F 2.62; S 2.57; K 2.13; I 2.79; E 3.73; W 3.27; P 4.3; H 2.01; A 2.8; T 2.95; G 3.3; C 3.73
I2: R 2.35; K 2.88; T 1.4; H 3.01; L 1.44; G 3.67; Y 3.07
F1: P 1.15; E 2.04; A 2.61; V 1.05; Y 2.36; W 2.01; Q 2.03; N 2.54; K 2.46
L9: P 4.2; F 3.76; T 2.81; Q 2.47; D 2.93; A 1.79; E 1.72; K 1.84
V15: L 1.88; P 3.2; D 4.47; W 2.06; M 4.35; N 2.49; Y 3.39; I 2.16; A 2.88; F 3.1

Variants of: B2
Assay: as above
Settings: c terminus: a fixed tail appended

Protein stability index, by site and new letter:
N23: D 5.06
E17: N 3.61
N6: A 2.77
L19: N 4.87

Variants of: B3
Assay: as above
Settings: c terminus: native

Protein stability index: each site, then its substitutions
D6: R 2.21; E 4.69; N 3.2; C 4.03
L16: A 2.42; F 2.03; P 3.02; W 1.96; Y 3.57; H 2.13
L11: R 3.83; P 3.34; A 3.6; D 2.77; S 2.27; I 2.03; K 4.47; F 3.51
Q8: V 1.43; L 3.47; C 3.49; K 5.19; Y 2.98; T 3.31
V2: Q 1.5; K 3.98; G 2.61
A14: H 2.3; L 3.5; P 2.12; D 2.99; F 2.58; E 3.09; K 3.05
Q13: A 2.68; C 1.71; Y 2.73; M 2.42; S 3.53; D 2.15; G 4.32
V4: F 3.43; W 2.09; T 2.69; A 3.33; L 2.5; M 3.48
E18: P 3.59; S 2.02; F 1.67; C 3.41
T19: F 2.29; C 3.31; R 1.63; K 3.17; A 3.59
A17: K 3.45; I 3.76; S 2
F7: T 4.49; W 2.9; S 3.5
P20: A 3; K 2.19; C 1.59; F 2.27; W 3.74; I 3.38
F15: T 3.19; E 2.82; W 2.83; K 2.48; Y 1.94; R 1.95; G 3.47
V5: H 3.52; F 2.39; D 1.7; S 4.05; L 3.11; I 4.13; T 2.34; A 2.08; W 3.5
E10: F 4; Q 2.59; K 2.48; A 1.34; D 2.15; M 3.19; P 2.93
Q1: S 2.31; N 2.49; T 3.88
P3: V 3.01; D 3.02; Q 4.82
R12: P 2.89; Q 3.27; N 2.92; Y 3.86; E 2.54; M 3.51
A9: D 2.47
